In test [1] the target is K+ exchange antiporter 3 (KEA3), native KEA3.2 isoform (Arabidopsis thaliana (endogenous in Col-0)) (UniProt Q9M0Z3). Description: native gel or EMSA; Blue Native PAGE of thylakoid membranes solubilized with 0.7% β-DM, blotted and detected with the antibody against the KEA3 C-terminus; native protein marker for size. Background: A gel shift assay detects complexes by their altered migration in electrophoresis.

For test [2], the target named is recombinant KEA3 C-terminus (Arabidopsis thaliana). Description: native gel or EMSA; native gel electrophoresis (without SDS) of the SEC fraction with the KEA3 C-terminus, in phosphate-buffered saline pH 8.
Test [3] has the same target. The experiment in a line: SEC; Superdex 200 Increase 10/300 GL, calibrated with low and high molecular weight kits; Ni-NTA eluate treated with 2 mM EDTA to remove residual Ni2+ before the run. A general note: In gel filtration, larger molecules generally elute earlier.

By stoichiometry N is commonly meant a count of units in the complex or per binding partner. “K+ exchange antiporter 3 (KEA3), native KEA3.2 isoform (from UniProt Q9M0Z3-1 73-776) (natural protein)” registered a stoichiometry N in test [1] of 2.

Turning to “recombinant KEA3 C-terminus (domain or fragment)”, the stoichiometry N in test [2] and in test [3] was 2 throughout.

The values are drawn from article PMC8644300.
